Paper PMC2773364

Legend:
purified protein [1] = substrate: O=C(O)CC[C@H](NC(=O)OCc1ccccc1)C(=O)N[C@@H](Cc1ccc(O)cc1)C(=O)O; test: purified protein; conditions: 50 mM acetate buffer, pH 3.7, 30°C
purified protein [2] = substrate: CC(C)C[C@H](NC(=O)OCc1ccccc1)C(=O)N[C@@H](Cc1ccc(O)cc1)C(=O)O; test: purified protein; conditions: 50 mM acetate buffer, pH 3.7, 30°C

B1: recombinant OcpA (Aspergillus oryzae RIB40) (protein)
chain: YVNNSGICETTKGVNQYSGYLSVGENQNMFFWFFESRNNPQQAPLSAWFNGGPGCSSMIGLFQEHGPCHFVNGEDTPSLNEHSWNNFANMLYIDQPIGVGFSYGDNPVNSTWTAAPYVWKFLQAFYEHFPQYESRDFGIFTESYGGHYGPGFASYILDQNNAIEAGSQKGEKVNLVALGINNGMFDSTLQEKAYITFAYNNTYRQLIDESLKDKLLEAYESECLPAVQKCQQTQTNEDCQNAGSVCGESVENPIMQAGGDFDVYDVREPSNDPNPPETYSKYIARPDIMKAIGARSDYQECADAPGQKFGATGDEYRSTLPDLSEVIKAGVNVLVWAGTADYICNVDGSIAVANAVDFSGHDEFQGKALEAYKVNGKEVGQFKSVDNFHLLTVYDAGHEVPYYQPETALQAFTQILQKKPLSST
Purified protein [1]
  Km: 260 µM
  kcat: 22.7 s⁻¹
  kcat/Km: 85900 M⁻¹ s⁻¹
Purified protein [2]
  Km: 410 µM
  kcat: 18 s⁻¹
  kcat/Km: 43900 M⁻¹ s⁻¹

B2: recombinant CpI (Aspergillus oryzae RIB40) (protein)
chain: LPGSTPASVGRRQLPKNPTGVKTLTTANNVTIRYKEPGAEGVCETTPGVKSYSGYVDTSPESHTFFWFFEARHNPETAPITLWLNGGPGSDSLIGLFEELGPCHVNSTFDDYINPHSWNEVSNLLFLSQPLGVGFSYSDTVDGSINPVTGVVENSSFAGVQGRYPTIDATLIDTTNLAAEAAWEILQGFLSGLPSLDSRVQSKDFSLWTESYGGHYGPAFFNHFYEQNERIANGSVNGVQLNFNSLGIINGIIDEAIQAPYYPEFAVNNTYGIKAVNETVYNYMKFANQMPNGCQDLISTCKQTNRTALADYALCAEATNMCRDNVEGPYYAFAGRGVYDIRHPYDDPTPPSYYNKFLAKDSVMDAIGVNINYTQSNNDVYYAFQQTGDFVWPNFIEDLEEILALPVRVSLIYGDADYICNWFGGQAVSLAANYSQAAQFRSAGYTPLKVNGVEYGETREYGNFSFTRVYEAGHEVPYYQPIASLQLFNRTIFGWDIAEGQKKIWPSYKTNGTATATHTQSSVPLPTATSMSSVGMA
Purified protein [1]
  Km: 270 µM
  kcat: 20.1 s⁻¹
  kcat/Km: 73200 M⁻¹ s⁻¹
Purified protein [2]
  Km: 340 µM
  kcat: 30.3 s⁻¹
  kcat/Km: 89800 M⁻¹ s⁻¹
